Assay results taken from article PMC4203122, “Insights into transcriptional regulation of β-D-N-acetylhexosaminidase, an N-glycan-processing enzyme involved in ripening-associated fruit softening”.

B1: mCArG (26 bp, box 6 mutated) (dsDNA)
DNA 1: TTCATATTTCAAAATTTAATATTTTA
DNA 2: TAAAATATTAAATTTTGAAATATGAA
B2: SlASR1 promoter CArG (26 bp) (dsDNA)
DNA 1: AAGCAAAACATAAAATTGACTTGAAT
DNA 2: ATTCAAGTCAATTTTATGTTTTGCTT
B3: CArG (26 bp, box 6) (dsDNA)
DNA 1: TTCATATTCCAAAATTTGATATTTTA
DNA 2: TAAAATATCAAATTTTGGAATATGAA
B4: CArG box 5 (26 bp) (dsDNA)
DNA 1: CACAAAAACATAATTATGCTTCTTAC
DNA 2: GTAAGAAGCATAATTATGTTTTTGTG

Experiments:
[1] = target: T1, RIN139N (GST-RIN, N-terminal) (Solanum lycopersicum, UniProt Q8S4L4 1-139); assay: EMSA; 20 mM HEPES pH 7.5, 20% glycerol, 0.05 ug poly(dIdC), 2.5 mM EDTA, 2.5 mM DTT, 25 mM NaCl, plus 0.8 mM ZnCl2 (SlASR1) or 10 mM MgCl2 (RIN), 25 C, 30 min; 6% native PAGE 0.5x TBE; details: protein: recombinant; tags: N-terminal GST; chain copies: 2; label: 5'-32P
[2] = target: T1, RIN139N (GST-RIN, N-terminal); assay: EMSA; intense signal; 20 mM HEPES pH 7.5, 20% glycerol, 0.05 ug poly(dIdC), 2.5 mM EDTA, 2.5 mM DTT, 25 mM NaCl, plus 0.8 mM ZnCl2 (SlASR1) or 10 mM MgCl2 (RIN), 25 C, 30 min; 6% native PAGE 0.5x TBE; details: protein: recombinant; tags: N-terminal GST; chain copies: 2; label: 5'-32P

T1 sequence (Q8S4L4 entry or part of it): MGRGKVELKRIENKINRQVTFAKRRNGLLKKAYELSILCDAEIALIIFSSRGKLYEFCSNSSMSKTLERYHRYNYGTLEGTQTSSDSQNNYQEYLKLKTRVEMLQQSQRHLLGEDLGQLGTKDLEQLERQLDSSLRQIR

Binder	binding result [1]	binding result [2]
B1	no binding	
B2	binds	
B3		binds
B4		binds
